The source of these data is patent US7488592 (WASHINGTON UNIVERSITY, dated 2009).

The target of one test is T1, FLAG-Erf2p (yeast (S. cerevisiae), UniProt Q06551 1-359).
T1 construct: Expressed in yeast RJY543 (pESC) or in E. coli XL1 Blue (pFLAG-MAC operon fusion); also called FLAG-tagged Erf2p; yeast Erf2
T1 sequence: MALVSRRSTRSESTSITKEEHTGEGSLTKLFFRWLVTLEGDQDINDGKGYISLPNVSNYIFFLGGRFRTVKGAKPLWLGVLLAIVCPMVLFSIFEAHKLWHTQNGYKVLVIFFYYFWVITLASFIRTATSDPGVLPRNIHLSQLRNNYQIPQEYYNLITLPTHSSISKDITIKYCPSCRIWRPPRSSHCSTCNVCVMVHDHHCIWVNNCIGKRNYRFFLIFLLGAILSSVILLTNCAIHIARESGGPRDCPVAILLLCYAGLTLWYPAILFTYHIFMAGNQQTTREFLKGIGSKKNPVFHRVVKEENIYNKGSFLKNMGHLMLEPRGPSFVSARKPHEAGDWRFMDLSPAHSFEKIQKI
Put plainly: co-purification on GSH-agarose from yeast extracts, anti-FLAG immunoblot. How it is done:
(§1) Expression of FLAG-Erf2p was determined by affinity purification on anti-FLAG antibody linked to agarose beads followed by an anti-FLAG immunoblot (bottom panel). (FIG. 6C) The Ras PAT activity of partially purified extracts of ERF2 and ERF4 wild type and mutant strains was assayed as described in Example 1.
(§2) Purification of Erf2p/Erf4p Complex—RJY543 yeast cells expressing GST-Erf4p along with FLAG-Erf2p or FLAG-Erf2p mutants (Erf2(H201A)_p, Erf2(C189S)p, Erf2(C203S) p) were solubilized in Y-PER® reagent as described above. *E. coli* cells expressing GST-Erf4p along with FLAG-Erf2p or FLAG-Erf2p mutants (Erf2(H201A)p, Erf2(C203S)p) were lysed by high pressure (25,000 p.s.i.) homogenization (Avestin) in 50 mM Tris-HCl, pH 7.4, 150 mM NaCl, 1 mM DTT, 1 mM EDTA, and 0.13 mM phenylmethylsulfonyl fluoride (Buffer A). […]
(§3) Immunoblotting—Proteins bound to the GSH-agarose beads were analyzed for the presence of both GST and FLAG peptide fusion proteins. GST fusion proteins were detected by immunoblotting with rabbit anti-GST (Molecular Probes) antibody and peroxidase-conjugated goat anti-rabbit secondary antibody (Sigma). FLAG-tagged proteins were detected on Western blots by probing with anti-FLAG® M5 monoclonal antibody (Sigma) and peroxidase-conjugated sheep anti-mouse secondary antibody (Amersham Biosciences).
(In general: A western blot detects proteins with antibodies after separation by electrophoresis.)

The next test deals with T2, FLAG-Erf2(C189S)p (yeast (S. cerevisiae), UniProt Q06551 1-359).
T2 construct: Loss-of-function mutant in the DHHC domain, expressed in yeast
T2 sequence: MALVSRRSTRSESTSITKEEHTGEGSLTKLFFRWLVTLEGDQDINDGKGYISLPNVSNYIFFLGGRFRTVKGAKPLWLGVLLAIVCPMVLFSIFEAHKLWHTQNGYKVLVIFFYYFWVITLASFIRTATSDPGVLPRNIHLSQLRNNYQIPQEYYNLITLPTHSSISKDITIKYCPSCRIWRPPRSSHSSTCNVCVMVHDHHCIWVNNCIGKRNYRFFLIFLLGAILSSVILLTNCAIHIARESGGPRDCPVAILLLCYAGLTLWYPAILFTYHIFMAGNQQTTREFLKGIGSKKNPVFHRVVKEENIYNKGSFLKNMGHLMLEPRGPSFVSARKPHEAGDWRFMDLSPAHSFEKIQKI
As to the kind of experiment: co-purification on GSH-agarose from yeast extracts, immunoblot (FIG. 6B). How it is done: as §1, §2, §3

B1: GST-Erf4p (other)
chain: MCDSHQKEEDNANTSERALFFNYHEFSYSFYEDLGSEDAKPTEHDEDHKLCITHFPNVYAARGSAEFQVTRVVRVPRRFDESRSSLETPQFSTQLPGSEPAAIVGDDGTSFVRCGRYDIGDHVFGCSSVSPLSEYLSAAELAEVVHRVNGFLLREEGEVFGWRNLSGLLLDMLTGGLWSWVLGPLLSRPVFQESLALEQYVAQLNSPGGLLHERGVRLVLPRRSGCLSLDFVVPRPK
notes: also called yeast Erf4; YOL110W; not shown: glutathione S-transferase (GST) moiety fused in frame to the N-terminus; vector pEG(KG) in yeast, pFLAG-MAC operon fusio
Turning to B1, the binding result is “binds” in the test with FLAG-Erf2p and “no binding” in the test with FLAG-Erf2(C189S)p.
